From article PMC10504559

How the values were obtained:
[1] = target: T1, RGA (Arabidopsis thaliana, UniProt Q9SLH3 1-587); assay: EMSA
T1 sequence: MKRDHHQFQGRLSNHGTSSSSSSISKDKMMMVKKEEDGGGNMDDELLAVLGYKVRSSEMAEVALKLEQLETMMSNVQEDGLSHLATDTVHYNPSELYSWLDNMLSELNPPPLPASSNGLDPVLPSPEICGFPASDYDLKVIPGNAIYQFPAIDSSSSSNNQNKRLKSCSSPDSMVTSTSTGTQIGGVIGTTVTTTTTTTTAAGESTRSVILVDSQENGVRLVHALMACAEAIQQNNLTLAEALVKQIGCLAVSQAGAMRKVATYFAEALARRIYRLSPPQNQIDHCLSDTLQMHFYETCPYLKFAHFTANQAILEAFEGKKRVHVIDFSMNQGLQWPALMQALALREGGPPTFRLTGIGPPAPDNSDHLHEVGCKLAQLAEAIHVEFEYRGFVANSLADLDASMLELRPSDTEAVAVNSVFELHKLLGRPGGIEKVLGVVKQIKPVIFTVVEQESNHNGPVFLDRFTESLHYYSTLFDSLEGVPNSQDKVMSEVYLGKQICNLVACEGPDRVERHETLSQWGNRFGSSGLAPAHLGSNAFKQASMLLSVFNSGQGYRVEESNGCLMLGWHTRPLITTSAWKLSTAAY

[2] = target: T2, ABI4 (Arabidopsis thaliana, UniProt A0MES8 1-328); assay: EMSA
[3] = target: T2, ABI4; assay: competition
[4] = target: T3, HY5 (Arabidopsis thaliana, UniProt O24646 1-168); assay: EMSA
T3 sequence: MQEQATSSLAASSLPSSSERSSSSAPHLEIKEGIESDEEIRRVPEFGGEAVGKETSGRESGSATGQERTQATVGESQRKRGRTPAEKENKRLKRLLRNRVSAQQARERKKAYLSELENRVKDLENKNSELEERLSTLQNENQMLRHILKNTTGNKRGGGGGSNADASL

T2 sequence (A0MES8 whole entry): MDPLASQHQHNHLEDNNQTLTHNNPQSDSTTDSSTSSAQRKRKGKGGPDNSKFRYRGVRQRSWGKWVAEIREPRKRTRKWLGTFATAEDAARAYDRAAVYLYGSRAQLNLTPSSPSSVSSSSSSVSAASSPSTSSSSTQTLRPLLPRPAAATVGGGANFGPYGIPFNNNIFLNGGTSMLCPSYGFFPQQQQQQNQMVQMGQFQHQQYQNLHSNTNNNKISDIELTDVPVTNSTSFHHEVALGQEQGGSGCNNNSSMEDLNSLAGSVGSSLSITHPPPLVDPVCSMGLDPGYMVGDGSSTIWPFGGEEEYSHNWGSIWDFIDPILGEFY

B1: EXP2 promoter probe (dsDNA)
DNA 1: GCGGATATGTAATACGTCCACGTGGCATAAAAGTA
DNA 2: TACTTTTATGCCACGTGGACGTATTACATATCCGC
binding result [1]: no binding | binding result [2]: binds

B2: GA2ox7 promoter CCAC probe (dsDNA)
DNA 1: AAACACCCGACCCAATCTAAAAATCCCACCATAAGCCACCCAATTTATTCTTCTTCTTCA
DNA 2: TGAAGAAGAAGAATAAATTGGGTGGCTTATGGTGGGATTTTTAGATTGGGTCGGGTGTTT
binding result [2]: binds

B3: GA2ox7 promoter CCAC mutant (m) (dsDNA)
DNA 1: AAACACCCGACCCAATCTAAAAATCTATACATAAGTATACCAATTTATTCTTCTTCTTCA
DNA 2: TGAAGAAGAAGAATAAATTGGTATACTTATGTATAGATTTTTAGATTGGGTCGGGTGTTT
binding result [3]: no binding

B4: GA2ox7 promoter G-box probe (dsDNA)
DNA 1: TTAGGACACAAACACGTGGTTTTTCATAGCATTGAGAAATTATAATAAAT
DNA 2: ATTTATTATAATTTCTCAATGCTATGAAAAACCACGTGTTTGTGTCCTAA
binding result [4]: binds
